Data reported in publication PMC5971111 (Nature structural & molecular biology, 2018).

B1: Sec6 (natural protein)
chain: MSSDPLQQVCDLIKGDLSLERVRDIKEQLLKEKSVVEYQLNKESDKYYGEVEESLKLLNLSKNSVTSIKQQINEVNKLGNDNRFAINRYDILFRATKLYETVNTTSSIYDRIYNFVALMEHIERLLVAELAEDALETGCPHLLEIHFLLTSARDFQEQVVVMAKEATEDAQRTVMKLFSRLSGIISKFDKLLDGLTYDIVEMARAEQISLAIRLFKIYDLEEREDLRIEAIRNIIKKKEIEIEKSSIKKLPNSKNTARLQDETPKVIEYPTNKGLYQEIMSGTISTRTAPRGYKHFLINGINNSISEMFGEMREKYVGDQKFDVLDNMDWIFNELIIVKEHIANCCPPHWNIFEVYFDQYYKELHSLITDLVESEPETIIILDILAFDKTFQDTLKQDFGFTKSEVKSVIGDKEKETLFKDYLNLIVVKMTEWIGNLEKAEFDVFLERSTPPHSDSDGLLFLDGTKTCFQMFTQQVEVAAGTNQAKILVGVVERFSDLLTKRQKNWISKISEEIKKQINYNHKYDIDPESITPEDECPGGLVEYLIAVSNDQMKAADYAVAISSKYGKLVSKVYEKQITNHLEGTLDGFAEVAQCSSLGLITLMFDDLRKPYQEIFSKTWYMGSQAQQIADTLDEYLLDIKPQMNSVLFVNFIDNVIGETIIKFLTALSFEHSFKNKNNKFLEAMKRDFEIFYQLFVKVLDGNESKDTLITQNFTVMEFFMDLSCEPIDSILDIWQKYLEVYWDSRIDLLVGILKCRKDVSSSERKKIVQQATEMLHEYRRNMEANGVDREPTLMRRFVLEFEKQ
B2: Sec10 (natural protein)
chain: MNSLYELDPKWKKLLKTDNFLGGLTVNEFVQELSKDHRNDVLIDANTKNLPTNEKDQDAIREAIWKQLDPKPYIRTFESTLKELKNLNEETLNKRQYFSEQVATQEVIHSENVIKLSKDLHTTLLTFDKLDDRLTNVTQVVSPLGDKLETAIKKKQNYIQSVELIRRYNDFYSMGKSDIVEQLRLSKNWKLNLKSVKLMKNLLILSSKLETSSIPKTINTKLVIEKYSEMMENELLENFNSAYRENNFTKLNEIAIILNNFNGGVNVIQSFINQHDYFIDTKQIDLENEFENVFIKNVKFKEQLIDFENHSVIIETSMQNLINDVETVIKNESKIVKRVFEEKATHVIQLFIQRVFAQKIEPRFEVLLRNSLSISNLAYVRILHGLFTLFGKFTKSLIDYFQLLEIDDSNQILSTTLEQCFADLFSHYLYDRSKYFGIEKRSLEAILVDMTSKFTVNYDKEINKRVLLDKYKEKLSTNVDAFMHSPRGNTHSRQDSTSRSKLSQFNSFLKTHLDKDHLSLNRTNTLSDSFNNSSSSTQYDVANNSSSLVNSSFTASDIDNSPNSPANYSLNDVDSMLKCVVESTARVMELIPNKAHLYILEILKIMFLGIVDSYMEIALEVAYWKICKVDINKTAGVVNLNFLKFISMSTEILDLLSISIKSIFLPLLNNSPEIKAQIIEMTNSQIQKMEILINIILQETITVISTKFSAILCKQKKKDFVPKSQELLDQDTLPAIEIVNILNLIFEQSSKFLKGKNLQTFLTLIGEELYGLLLSHYSHFQVNSIGGVVVTKDIIGYQTAIEDWGVASLIDKFATLRELANLFTVQPELLESLTKEGHLADIGRDIIQSYISNREDFNHDNFINSVKLNFR

Legend:
Experiment in all cases: […]
Sec3 = target: T1, Sec3 (S. cerevisiae, UniProt P33332 1-1336)
T1 sequence: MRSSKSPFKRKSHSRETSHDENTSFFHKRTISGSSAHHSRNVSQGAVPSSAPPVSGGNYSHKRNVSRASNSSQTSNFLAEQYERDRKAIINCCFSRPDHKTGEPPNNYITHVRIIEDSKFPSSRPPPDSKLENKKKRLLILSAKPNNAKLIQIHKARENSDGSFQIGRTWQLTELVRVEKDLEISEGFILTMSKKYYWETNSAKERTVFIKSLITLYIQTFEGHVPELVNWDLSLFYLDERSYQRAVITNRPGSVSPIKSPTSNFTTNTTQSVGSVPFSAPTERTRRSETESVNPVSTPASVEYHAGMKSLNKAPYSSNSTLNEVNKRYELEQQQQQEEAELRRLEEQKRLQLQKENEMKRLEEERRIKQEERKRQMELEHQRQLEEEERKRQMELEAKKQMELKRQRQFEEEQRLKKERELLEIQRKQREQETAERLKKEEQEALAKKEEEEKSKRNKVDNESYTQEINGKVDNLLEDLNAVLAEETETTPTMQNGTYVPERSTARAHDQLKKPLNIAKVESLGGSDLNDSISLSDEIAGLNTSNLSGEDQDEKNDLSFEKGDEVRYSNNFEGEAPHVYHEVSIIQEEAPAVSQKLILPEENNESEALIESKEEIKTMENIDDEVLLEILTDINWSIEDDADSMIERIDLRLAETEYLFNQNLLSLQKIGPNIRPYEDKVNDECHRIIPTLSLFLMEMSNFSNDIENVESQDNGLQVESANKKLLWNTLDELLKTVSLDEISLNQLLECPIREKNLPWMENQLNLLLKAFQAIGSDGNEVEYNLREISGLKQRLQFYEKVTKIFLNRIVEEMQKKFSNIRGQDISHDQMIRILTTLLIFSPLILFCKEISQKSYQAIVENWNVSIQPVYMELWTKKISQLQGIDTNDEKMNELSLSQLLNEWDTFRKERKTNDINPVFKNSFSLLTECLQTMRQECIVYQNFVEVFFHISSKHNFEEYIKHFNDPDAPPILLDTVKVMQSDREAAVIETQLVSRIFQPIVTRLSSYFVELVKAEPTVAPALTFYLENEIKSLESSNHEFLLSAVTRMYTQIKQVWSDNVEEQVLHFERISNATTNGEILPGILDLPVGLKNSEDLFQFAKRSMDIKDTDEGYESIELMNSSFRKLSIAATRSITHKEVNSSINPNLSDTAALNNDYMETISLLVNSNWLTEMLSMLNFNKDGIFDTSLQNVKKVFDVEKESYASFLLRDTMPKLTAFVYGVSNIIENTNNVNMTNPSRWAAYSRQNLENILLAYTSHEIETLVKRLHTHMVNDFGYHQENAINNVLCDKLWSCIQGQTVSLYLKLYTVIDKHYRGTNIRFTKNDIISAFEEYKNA

Sec5 = target: T2, Sec5 (S. cerevisiae, UniProt P89102 1-971)
T2 sequence: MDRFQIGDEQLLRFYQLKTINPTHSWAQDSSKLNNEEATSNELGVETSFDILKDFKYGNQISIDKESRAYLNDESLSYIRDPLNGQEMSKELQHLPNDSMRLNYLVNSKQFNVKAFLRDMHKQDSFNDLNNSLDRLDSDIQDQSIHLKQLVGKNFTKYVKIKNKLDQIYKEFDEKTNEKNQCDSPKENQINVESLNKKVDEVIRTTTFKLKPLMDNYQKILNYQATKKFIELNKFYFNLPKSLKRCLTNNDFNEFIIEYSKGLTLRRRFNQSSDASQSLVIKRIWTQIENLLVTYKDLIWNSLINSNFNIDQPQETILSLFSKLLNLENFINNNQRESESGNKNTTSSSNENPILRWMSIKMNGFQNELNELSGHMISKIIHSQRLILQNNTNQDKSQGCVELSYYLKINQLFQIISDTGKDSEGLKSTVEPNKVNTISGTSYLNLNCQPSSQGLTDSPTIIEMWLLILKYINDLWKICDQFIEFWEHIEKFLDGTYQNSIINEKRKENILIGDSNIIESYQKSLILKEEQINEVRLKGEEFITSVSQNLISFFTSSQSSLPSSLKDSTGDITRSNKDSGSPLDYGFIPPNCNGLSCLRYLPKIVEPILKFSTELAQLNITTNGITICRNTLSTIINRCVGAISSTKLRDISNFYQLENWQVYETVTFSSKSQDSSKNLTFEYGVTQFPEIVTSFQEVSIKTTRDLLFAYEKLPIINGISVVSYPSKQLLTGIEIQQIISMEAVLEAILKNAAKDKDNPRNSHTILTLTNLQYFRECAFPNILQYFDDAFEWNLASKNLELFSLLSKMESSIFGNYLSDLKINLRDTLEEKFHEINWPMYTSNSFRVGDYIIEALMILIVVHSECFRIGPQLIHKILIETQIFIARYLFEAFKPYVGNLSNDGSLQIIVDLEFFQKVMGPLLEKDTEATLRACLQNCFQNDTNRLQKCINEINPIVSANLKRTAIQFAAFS

Sec8 = target: T3, Sec8 (S. cerevisiae, UniProt P32855 1-1065)
T3 sequence: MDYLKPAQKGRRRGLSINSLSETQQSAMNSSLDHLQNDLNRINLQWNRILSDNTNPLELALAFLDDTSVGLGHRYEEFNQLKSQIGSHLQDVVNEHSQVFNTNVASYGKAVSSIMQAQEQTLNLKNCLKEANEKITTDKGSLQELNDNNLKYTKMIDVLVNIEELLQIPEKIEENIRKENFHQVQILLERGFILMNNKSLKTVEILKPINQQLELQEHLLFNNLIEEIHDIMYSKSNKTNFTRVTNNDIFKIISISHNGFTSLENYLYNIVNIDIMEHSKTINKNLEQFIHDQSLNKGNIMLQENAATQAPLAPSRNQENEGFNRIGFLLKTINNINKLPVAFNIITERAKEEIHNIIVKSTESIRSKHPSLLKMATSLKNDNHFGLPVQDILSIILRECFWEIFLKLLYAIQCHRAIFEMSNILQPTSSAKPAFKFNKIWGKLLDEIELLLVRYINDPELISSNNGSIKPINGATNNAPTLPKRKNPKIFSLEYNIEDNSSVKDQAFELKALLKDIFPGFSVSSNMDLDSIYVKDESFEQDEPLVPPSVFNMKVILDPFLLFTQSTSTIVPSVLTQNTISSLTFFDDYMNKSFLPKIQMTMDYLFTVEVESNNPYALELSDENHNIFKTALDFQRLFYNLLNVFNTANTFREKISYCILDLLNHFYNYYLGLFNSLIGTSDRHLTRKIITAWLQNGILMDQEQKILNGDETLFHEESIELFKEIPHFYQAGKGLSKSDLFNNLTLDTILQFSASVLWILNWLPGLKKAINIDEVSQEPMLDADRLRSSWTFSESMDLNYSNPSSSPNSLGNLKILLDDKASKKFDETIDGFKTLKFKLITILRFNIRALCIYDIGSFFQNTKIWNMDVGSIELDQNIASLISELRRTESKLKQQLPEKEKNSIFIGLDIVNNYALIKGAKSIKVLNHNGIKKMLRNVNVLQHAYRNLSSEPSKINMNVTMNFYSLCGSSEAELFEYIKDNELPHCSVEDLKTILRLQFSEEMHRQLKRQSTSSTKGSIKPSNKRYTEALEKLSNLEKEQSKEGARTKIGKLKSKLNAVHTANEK

Sec15 = target: T4, Sec15 (S. cerevisiae, UniProt P22224 1-910)
T4 sequence: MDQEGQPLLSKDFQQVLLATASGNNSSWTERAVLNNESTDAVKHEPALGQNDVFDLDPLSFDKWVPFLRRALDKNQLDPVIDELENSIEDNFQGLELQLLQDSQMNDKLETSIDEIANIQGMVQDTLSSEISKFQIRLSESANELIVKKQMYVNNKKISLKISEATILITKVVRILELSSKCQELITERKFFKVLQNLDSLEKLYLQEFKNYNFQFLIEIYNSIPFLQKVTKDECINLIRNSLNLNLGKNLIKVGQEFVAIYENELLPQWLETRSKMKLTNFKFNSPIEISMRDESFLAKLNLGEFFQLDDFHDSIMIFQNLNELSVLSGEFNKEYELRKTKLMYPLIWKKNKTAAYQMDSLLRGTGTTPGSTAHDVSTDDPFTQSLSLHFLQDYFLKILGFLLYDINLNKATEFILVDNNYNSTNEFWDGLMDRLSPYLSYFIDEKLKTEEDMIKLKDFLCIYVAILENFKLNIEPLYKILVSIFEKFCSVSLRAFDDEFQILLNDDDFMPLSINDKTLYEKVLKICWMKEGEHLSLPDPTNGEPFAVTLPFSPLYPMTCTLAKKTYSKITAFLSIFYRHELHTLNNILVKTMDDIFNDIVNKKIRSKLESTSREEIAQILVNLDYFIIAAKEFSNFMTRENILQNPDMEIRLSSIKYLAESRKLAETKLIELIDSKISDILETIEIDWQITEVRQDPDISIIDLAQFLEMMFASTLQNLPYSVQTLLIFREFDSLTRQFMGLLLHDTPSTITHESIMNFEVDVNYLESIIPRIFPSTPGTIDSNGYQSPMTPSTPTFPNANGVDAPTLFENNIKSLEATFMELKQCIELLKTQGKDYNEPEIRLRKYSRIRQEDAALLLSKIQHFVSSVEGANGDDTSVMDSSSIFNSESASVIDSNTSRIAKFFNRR

Binder	binding result (Sec3)	binding result (Sec5)	binding result (Sec8)	binding result (Sec15)
B1	binds	binds	–	–
B2	binds	–	binds	binds
